# Reference: publication PMC5638942
# How the values were obtained:
# PTHR1 (Homo sapiens) = PTHR1 (Homo sapiens) (UniProt Q03431); experiment: radioligand competition; settings: cited from earlier work
# [1] = molecular target: PTH1 receptor (PTHR1), recombinant, on transfected HEK 293a cells (UniProt Q03431)
# Sequence of PTH (P01270 32-115): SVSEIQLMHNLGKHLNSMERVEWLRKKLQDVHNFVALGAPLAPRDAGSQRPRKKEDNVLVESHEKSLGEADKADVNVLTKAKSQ
"potency in cyclic AMP generation (10 min) in HEK 293a cells expressing PTHR1, against PTH(1-34) [1] [fold]",Substance,Ki (PTHR1 (Homo sapiens)) [nM]
–,PTH1-34 1-34 (from UniProt P01270),4
–,PTH (from UniProt P01270),2
5,"PTH-HRP (prepro-PTH(1-84) fused to the N-terminus of horseradish peroxidase, N175S mutant) (from UniProt P01270 32-115) (ligand)",–
